In the test the target is T1, full-length E. coli DnaK (residues 1–638) (Escherichia coli, UniProt P0A6Y8 1-638).
T1 construct: DnaK (Hsp70), Escherichia coli, residues 1-638; cloned from pTTQ19dnaK+ into pET28a; source: E. coli BL21(DE3), purified (Q Sepharose, DEAE-Sephacel, Superdex 200)
Description: fluorescence polarisation; fluorescence anisotropy of FITC-B2 with 1-μM DnaK in buffer C (50-mM Tris-HCl pH 7.4, 20-mM MgCl2, 1-mM EDTA, 0.5-mM TCEP), DBeQ solutions in DMSO added, room temperature, 30-min incubation. Conditions: both partners purified.

*: point of attachment. FITC = O=C1OC2(c3ccc(O)cc3Oc3cc(O)ccc32)c2ccc(NC(=S)*)cc21; Ahx = NCCCCCC(=O)O

T1 sequence (P0A6Y8 whole entry, the tested form may be a part): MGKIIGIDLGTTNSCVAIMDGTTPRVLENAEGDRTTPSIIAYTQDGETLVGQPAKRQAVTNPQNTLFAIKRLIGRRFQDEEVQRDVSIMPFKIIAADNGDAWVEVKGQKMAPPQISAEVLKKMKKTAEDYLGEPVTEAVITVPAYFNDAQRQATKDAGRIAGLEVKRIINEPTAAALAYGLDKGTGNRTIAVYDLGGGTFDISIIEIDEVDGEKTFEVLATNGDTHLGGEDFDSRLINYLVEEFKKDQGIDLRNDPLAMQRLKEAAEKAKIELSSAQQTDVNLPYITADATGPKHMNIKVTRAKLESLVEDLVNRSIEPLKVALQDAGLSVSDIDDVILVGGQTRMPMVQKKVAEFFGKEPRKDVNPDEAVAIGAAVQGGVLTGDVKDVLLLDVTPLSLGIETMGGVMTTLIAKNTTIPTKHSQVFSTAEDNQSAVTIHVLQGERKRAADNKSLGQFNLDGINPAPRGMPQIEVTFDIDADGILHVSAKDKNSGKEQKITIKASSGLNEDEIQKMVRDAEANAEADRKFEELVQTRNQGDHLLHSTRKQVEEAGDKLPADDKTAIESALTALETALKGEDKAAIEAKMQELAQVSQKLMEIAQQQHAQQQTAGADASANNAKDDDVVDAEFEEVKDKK

B1: FITC-B2 (FITC-Ahx-QRKLFFNLRKTKQRLGWFNQ-NH2) (peptide)
peptide: {FITC-Ahx}-QRKLFFNLRKTKQRLGWFNQ-NH2
SMILES: CC(C)C[C@H](NC(=O)[C@H](CCCNC(=N)N)NC(=O)[C@H](CCC(N)=O)NC(=O)[C@H](CCCCN)NC(=O)[C@@H](NC(=O)[C@H](CCCCN)NC(=O)[C@H](CCCNC(=N)N)NC(=O)[C@H](CC(C)C)NC(=O)[C@H](CC(N)=O)NC(=O)[C@H](Cc1ccccc1)NC(=O)[C@H](Cc1ccccc1)NC(=O)[C@H](CC(C)C)NC(=O)[C@H](CCCCN)NC(=O)[C@H](CCCNC(=N)N)NC(=O)[C@H](CCC(N)=O)NC(=O)CCCCCNC(=S)Nc1ccc2c(c1)C(=O)OC21c2ccc(O)cc2Oc2cc(O)ccc21)[C@@H](C)O)C(=O)NCC(=O)N[C@@H](Cc1c[nH]c2ccccc12)C(=O)N[C@@H](Cc1ccccc1)C(=O)N[C@@H](CC(N)=O)C(=O)N[C@@H](CCC(N)=O)C(N)=O
notes: peptide B2, substrate-mimicking peptide; also called FITC-labeled peptide B2; substrate-mimicking peptide; source: obtained as described before (65)
With B1, the binding result is on record as “binds”.

The values are drawn from article PMC7948422, “Repurposing p97 inhibitors for chemical modulation of the bacterial ClpB–DnaK bichaperone system” (The Journal of Biological Chemistry, 2020).
